Columns and labels:
Assay in all cases: ELISA on Sf9 extract, absorbance at 405 nm normalized to H16.D9
[1] = target: HPV11 L1 virus-like particles (human papillomavirus type 11) (UniProt P04012)
[2] = target: HPV16 L1 virus-like particles (human papillomavirus type 16) (UniProt P03101)
[3] = target: HPV16:D202E virus-like particles (human papillomavirus type 16) (UniProt P03101)
[4] = target: HPV16:D202H L1 (human papillomavirus type 16) (UniProt P03101)

## MAb H16.U4 (antibody)
[1]
  normalized ELISA value (normalized with H16.D9): 0.06
[2]
  normalized ELISA value (normalized with H16.D9): 0.79
[3]
  normalized ELISA value (normalized with H16.D9): 0.59
[4]
  normalized ELISA value (normalized with H16.D9): 0.21

## MAb H16.V5 (antibody)
[1]
  normalized ELISA value (normalized with H16.D9): 0.06
[2]
  normalized ELISA value (normalized with H16.D9): 1.08
[3]
  normalized ELISA value (normalized with H16.D9): 0.15
[4]
  normalized ELISA value (normalized with H16.D9): 0.19
